Experimental data: the supplement of paper PMC10724198
± gives the standard deviation of the averaged measurements.

tested on: Saccharomyces cerevisiae; assay: protein stability index of tFT-peptide fusion (C-terminal peptide) (PSI (0-1 scale)); higher = more stable (slower turnover); conditions: genetic background: wild type; temperature: 30 C
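Also: PSI is a weighted mean of sequencing reads over stability bins, variants kept only with over 10 reads, mCherry proximal and sfGFP distal, peptide attached via GGGS linker.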

Sequence	protein stability index
EARMGVGRCGTG	0.661 ± 0.022
PPLPSGLHPTLT	0.6932 ± 0.0052
FAPSAGGSLAGP	0.698 ± 0.033
KDKNPDARDDGG	0.705 ± 0.04
EKIKKTEKNKNK	0.6755 ± 0.0042
GGGAEGGVRGGG	0.664 ± 0.027
ACGAWAVVGLLG	0.679 ± 0.042
PAALPHTPSAPY	0.666 ± 0.04
NVRKWSREDQTG	0.6679 ± 0.00079
SLSLYSSTSLLP	0.694 ± 0.064
VCKQASDSKLQG	0.663 ± 0.023
SRISSCSLVRPP	0.679 ± 0.032
ACRVAVGRLFGS	0.717 ± 0.037
VWFLSYLSVIFP	0.58 ± 0.04
SVGFVGVGCRGR	0.707 ± 0.025
PPPLPLPSPPPS	0.664 ± 0.08
PPSPAPPPASPP	0.651 ± 0.035
DSDSVMPFERLM	0.659 ± 0.0095
KKHTLNENKMKE	0.652 ± 0.011
VQRPALPPRHPP	0.612 ± 0.005
SSLRPSRPPPAS	0.6988 ± 0.0057
GNVNCNLRRYYI	0.766 ± 0.086
HSYLSPPLLASP	0.715 ± 0.069
CGDAGSVGCVYV	0.699 ± 0.055
VDHWVCWCGGWV	0.731 ± 0.0098

Sequence	protein stability index
VDVSGIKAGRPW	0.681 ± 0.011
VVGVAVSRTFAR	0.618 ± 0.039
FSSPSFRSSLLL	0.679 ± 0.015
LARWFILRDLIY	0.56 ± 0.0089
RPFSSPSPSLPA	0.743 ± 0.071
AALIHLSFYSPS	0.67 ± 0.02
PTPPPGLCTPRH	0.702 ± 0.04
SRLNRRKGNGRK	0.656 ± 0.083
RRGENQSFPACR	0.701 ± 0.028
VSGVREGCSEME	0.773 ± 0.11
DPKNEINAKENI	0.689 ± 0.069
DSIALNKDVFWW	0.773 ± 0.02
LPCSTLPWAPLT	0.565 ± 0.023
LIWHTLSTVIPF	0.657 ± 0.029
HPPSPPPPPSRL	0.713 ± 0.071
VATVSLSVRNTS	0.66 ± 0.033
LPPTPPLPRSLP	0.716 ± 0.066
PLTPSPRPPPPS	0.615 ± 0.15
LVFSSVVISCDI	0.528 ± 0.0092
LRLCSLSLPSLP	0.704 ± 0.026
KKKRKRKRSRRK	0.639 ± 0.03
GLRSDIGQVTHP	0.635 ± 0.066
GSVTLTLLRPPS	0.753 ± 0.086
PAPLPPRPTSLP	0.711 ± 0.011
LFGAGGGGVEVG	0.672 ± 0.14

Sequence	protein stability index
RVCYRAELSAMS	0.559 ± 0.045
WVLFRNKSVAAS	0.527 ± 0.012
NPFLHQSMGQLT	0.724 ± 0.078
WCLDCVGFSLPE	0.687 ± 0.054
SHRYFFLAFSGL	0.655 ± 0.02
SILSRPERPLTN	0.658 ± 0.044
VFLSITHFESRV	0.723 ± 0.055
TISHPLGPFSVH	0.66 ± 0.042
VPSPHLQPTVSP	0.654 ± 0.0074
PWANRVCFLHMK	0.678 ± 0.037
ICVTSFSVWGCC	0.592 ± 0.028
SVMFSSLTRPPL	0.65 ± 0.11
RGCGRLDGRRGG	0.704 ± 0.015
PTTNHLSNRHNI	0.685 ± 0.085
GGRVFWGGSRSV	0.651 ± 0.033
PYFFSPIFTRTP	0.712 ± 0.027
FSACSGSHVEVW	0.695 ± 0.037
GHNTPRRVMSRC	0.689 ± 0.037
PIPPLPSSRLGV	0.602 ± 0.037
PGGLVVGAGRED	0.709 ± 0.033
TVWSSPPSRRSS	0.699 ± 0.043
IVNKRLKIRKKQ	0.658 ± 0.045
PAPLLPLSPPRP	0.709 ± 0.042
QVKVGQTEMAYN	0.78 ± 0.22
CSNKIILMTRNN	0.564 ± 0.041

Sequence	protein stability index
PDSLCLSPPSLP	0.686 ± 0.017
EGDGLVWGGQGG	0.691 ± 0.0078
PWEVEAKNGRDR	0.717 ± 0.032
GKKKVKEWKKQM	0.604 ± 0.025
VCAEGAAYSDKA	0.646 ± 0.038
KRKENKKNKEKK	0.669 ± 0.042
SLRGIVFQSPSP	0.737 ± 0.025
WGRGRGEMVGRT	0.705 ± 0.038
SYLHALSRPSLL	0.734 ± 0.03
RLCPNSITLPSL	0.7156 ± 0.0018
YYCLRVRTINRR	0.703 ± 0.011
TPTSPPLPLTIS	0.579 ± 0.016
YMAGGQCDRLPG	0.677 ± 0.055
RGVGLGRWGPVV	0.652 ± 0.0081
YYAFITERYRHN	0.6069 ± 0.0046
VGGRGGGRGVVG	0.672 ± 0.0073
SNHPPLSFHTGR	0.734 ± 0.0084
GGSLVRGAGVRS	0.686 ± 0.031
CGEGGVCRLVFS	0.682 ± 0.0074
QERRDQGRKGQD	0.673 ± 0.011
SYPDYFDSDSSD	0.716 ± 0.011
GVESQIHISTYE	0.686 ± 0.049
CGCGCPSRVLVS	0.643 ± 0.061
LPPTSPPPSSPP	0.7007 ± 0.0041
GPSGGSGGGGVG	0.597 ± 0.049

Sequence	protein stability index
QFNVLPGQVGLV	0.635 ± 0.027
PLFLHSAHVSPI	0.712 ± 0.071
SLTGYAGESIRF	0.774 ± 0.056
VPRFTPYRAIFP	0.591 ± 0.016
RSVSLIAVAPSA	0.692 ± 0.017
DCWAGWGLCGGG	0.723 ± 0.042
SLPLLPHLPASP	0.698 ± 0.17
SPVSPPLVRPPY	0.642 ± 0.054
RMGGRGGRLGAE	0.657 ± 0.018
SSLAPLLYLDTP	0.661 ± 0.084
LSVPVGIRPGRC	0.702 ± 0.018
YGFFCFLPVFRG	0.661 ± 0.054
TVAEGKKMRGKV	0.672 ± 0.036
ALSCLVCLFGLL	0.545 ± 0.054
DQATEPTPKPPD	0.643 ± 0.0079
APPPSPSPPPPL	0.712 ± 0.039
GSYSIVDRTPLF	0.5679 ± 0.005
GVLCGQGRAGAA	0.7 ± 0.014
RKDDRPYIRETS	0.701 ± 0.016
PVSCTLTLPPPH	0.65 ± 0.0036
VSVRLAINRKEW	0.6738 ± 0.00093
PPAAPPPQPHLT	0.696 ± 0.032
FSSTSAPPRSAP	0.621 ± 0.0078
LLRSCLTLFARR	0.668 ± 0.021
RYELSLRLYGSL	0.623 ± 0.089

Sequence	protein stability index
HYRSNFGRDSNL	0.762 ± 0.082
PSTAPHLSPPPP	0.731 ± 0.022
CPGVLVLMCGRP	0.589 ± 0.009
SRHRAVRAGENW	0.708 ± 0.045
LHGLSGRLLFDV	0.574 ± 0.2
PPSLRVVMVVGR	0.611 ± 0.056
EALTTAATRYGP	0.651 ± 0.0068
GVRGALGCAGRV	0.679 ± 0.02
GILVDGRGRGCR	0.735 ± 0.039
SSLSPTPPPSFP	0.84 ± 0.2
PLPRAPSPPPPP	0.694 ± 0.023
IFPPPLLPSLPT	0.703 ± 0.086
PTSPPPPPASPS	0.836 ± 0.18
GRGGVLEEAVGG	0.654 ± 0.077
APPPPRAPTPPP	0.696 ± 0.011
CGCSLPGFCFLA	0.53 ± 0.022
SPPPPLLPHPTP	0.723 ± 0.047
IRGCSGSDKNKS	0.643 ± 0.047
SISVLSSSSLGF	0.741 ± 0.12
PLPPPPRPPLRP	0.6941 ± 0.0052
SVSRGAPSGSLG	0.688 ± 0.067
